Paper PMC8540335

Columns and labels:
[1] = molecular target: 2NCp7 (NCp7 with 2 Zn2+) (HIV-1, UniProt P04591 378-432); test: SPR; 2 Zn2+ per protein; 50 RU RNA immobilized; SPR (Biacore X100, SA chip): 10 mM HEPES pH 7.4, 150 mM NaCl, 0.005% Tween-20, 25 C; conditions: protein: recombinant; tags: 6xHis (pET28); label: 3'-biotin; hairpin
[2] = molecular target: NCp7 (1 Zn2+ per protein, as purified) (HIV-1, UniProt P04591 378-432); test: SPR; 1 Zn2+ per protein; 50 RU RNA immobilized; SPR (Biacore X100, SA chip): 10 mM HEPES pH 7.4, 150 mM NaCl, 0.005% Tween-20, 25 C; conditions: protein: recombinant; tags: 6xHis (pET28); label: 3'-biotin; hairpin

B1: SL3-RNA (structured_RNA)
RNA: GGACUAGCGGAGGCUAGUCC
Kd [1]: 3.15 nM
Kd [2]: 21.4 nM
